Laboratory results reported in patent publication US20170340748A1.
Where two headings read alike, the source gives them in different places.

Experiments:
T47D cells (human) [1] = biological target: T47D cells (human) (UniProt P15328); test: flow cytometry binding on T47D cells
T47D cells (human) [2] = biological target: T47D cells (human) (UniProt P15328); test: flow cytometry binding on T47D cells; remark: listed apart in the source

T47D cells (human), sequence (P15328 25-234, stated change not applied): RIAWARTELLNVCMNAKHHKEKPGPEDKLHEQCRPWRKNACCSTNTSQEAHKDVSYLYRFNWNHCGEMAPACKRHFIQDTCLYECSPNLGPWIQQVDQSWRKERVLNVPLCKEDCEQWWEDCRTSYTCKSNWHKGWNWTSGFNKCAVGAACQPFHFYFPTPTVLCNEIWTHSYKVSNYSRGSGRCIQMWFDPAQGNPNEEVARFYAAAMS

- EC50 (T47D cells (human) [1]): 0.144 nM
- EC50 (T47D cells (human) [2]): 0.314 nM
Substance: huMOV19
